Laboratory results reported in US20230295335A1 (published 2023).

Legend:
[1] = target: T1, full length human EpCAM on cells (human, UniProt P16422 24-314); assay: flow cytometry on CHO-S cells transfected with human EpCAM
T1 construct: the cell line is named under assay; also called EpCAM on DiFi, HPAF-II and A549 tumor cells; CHO-S cells transfected with full length human EpCAM
T1 sequence: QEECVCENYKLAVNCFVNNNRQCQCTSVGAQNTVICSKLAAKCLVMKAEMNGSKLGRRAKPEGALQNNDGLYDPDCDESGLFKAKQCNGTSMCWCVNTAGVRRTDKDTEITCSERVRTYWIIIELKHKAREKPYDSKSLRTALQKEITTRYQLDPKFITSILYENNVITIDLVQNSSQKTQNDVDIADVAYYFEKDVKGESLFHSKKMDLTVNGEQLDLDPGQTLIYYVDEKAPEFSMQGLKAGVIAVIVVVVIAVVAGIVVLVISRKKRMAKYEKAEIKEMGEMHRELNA
Method: (§1) Binding of EpCAM antibodies to CHO-S cells transiently transfected with full length human, cynomolgus monkey or mouse EpCAM was analyzed by flow cytometry. […] Cells were washed twice in FACS buffer, re-suspended in 20 μL FACS buffer supplemented with TO-PRO™-3 Iodide (diluted 1:20000; Invitrogen, cat. no. T3605) and analyzed on an iQue screener (Intellicyt Corporation, USA). Binding curves were analyzed by non-linear regression (sigmoidal dose-response with variable slope) using GraphPad Prism V8.4.1 software (GraphPad Software, San Diego, CA, USA).

[2] = target: T2, full length mouse EpCAM on CHO-S cells (mouse, UniProt Q99JW5 24-315); assay: flow cytometry on CHO-S cells transfected with mouse EpCAM
T2 sequence: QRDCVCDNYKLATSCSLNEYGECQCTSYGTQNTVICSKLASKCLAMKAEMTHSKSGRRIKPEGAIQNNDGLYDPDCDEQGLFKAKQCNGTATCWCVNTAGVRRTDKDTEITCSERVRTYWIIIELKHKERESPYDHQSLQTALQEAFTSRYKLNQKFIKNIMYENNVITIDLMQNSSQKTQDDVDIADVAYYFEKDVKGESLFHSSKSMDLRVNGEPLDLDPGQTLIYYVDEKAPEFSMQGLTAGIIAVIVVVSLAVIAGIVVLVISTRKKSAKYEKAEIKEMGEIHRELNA
Method: as §1

[3] = target: T3, full length cynomolgus monkey EpCAM on CHO-S cells (cynomolgus monkey, UniProt Q1WER1 24-314 (rhesus entry)); assay: flow cytometry on CHO-S cells transfected with cynomolgus monkey EpCAM
T3 sequence: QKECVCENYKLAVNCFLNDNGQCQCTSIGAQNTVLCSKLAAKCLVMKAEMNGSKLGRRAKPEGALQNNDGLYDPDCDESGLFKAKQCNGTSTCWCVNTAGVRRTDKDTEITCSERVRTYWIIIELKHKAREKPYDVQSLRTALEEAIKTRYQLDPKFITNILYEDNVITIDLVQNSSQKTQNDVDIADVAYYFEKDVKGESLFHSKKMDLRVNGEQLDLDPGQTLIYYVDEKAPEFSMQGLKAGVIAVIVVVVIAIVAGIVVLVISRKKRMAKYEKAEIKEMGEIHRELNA
Method: as §1

[4] = target: T1, full length human EpCAM on cells; assay: flow cytometry on DiFi, HPAF-II and A549 tumor cells
Method: Binding to the EpCAM-expressing human tumor cell lines DiFi, HPAF-II and A549 by bivalent EpCAM antibodies or bispecific antibodies carrying one EpCAM-binding arm was analyzed by flow cytometry. […] Next, cells were washed once (A-D) or twice (E) in FACS buffer, re-suspended in 100 μL FACS buffer and analyzed on a BD LSRFortessa FACS (BD Biosciences, USA), Celesta (BD Biosciences, USA) or iQue (Sartorius, Germany). Binding curves were analyzed using non-linear regression (sigmoidal dose-response with variable slope) using GraphPad Prism V7.02 software (GraphPad Software, San Diego, CA, USA).

B1: bsIgG1-b12-FEAL/EpCAM-323-A3-FEAR (bispecific antibody)
heavy 1: QVQLVQSGAEVKKPGASVKVSCQASGYRFSNFVIHWVRQAPGQRFEWMGWINPYNGNKEFSAKFQDRVTFTADTSANTAYMELRSLRSADTAVYYCARVGPYSWDDSPQDNYYMDVWGKGTTVIVSSASTKGPSVFPLAPSSKSTSGGTAALGCLVKDYFPEPVTVSWNSGALTSGVHTFPAVLQSSGLYSLSSVVTVPSSSLGTQTYICNVNHKPSNTKVDKRVEPKSCDKTHTCPPCPAPEFEGGPSVFLFPPKPKDTLMISRTPEVTCVVVAVSHEDPEVKFNWYVDGVEVHNAKTKPREEQYNSTYRVVSVLTVLHQDWLNGKEYKCKVSNKALPAPIEKTISKAKGQPREPQVYTLPPSREEMTKNQVSLTCLVKGFYPSDIAVEWESNGQPENNYKTTPPVLDSDGSFLLYSKLTVDKSRWQQGNVFSCSVMHEALHNHYTQKSLSLSPG
light 1: EIVLTQSPGTLSLSPGERATFSCRSSHSIRSRRVAWYQHKPGQAPRLVIHGVSNRASGISDRFSGSGSGTDFTLTITRVEPEDFALYYCQVYGASSYTFGQGTKLERKRTVAAPSVFIFPPSDEQLKSGTASVVCLLNNFYPREAKVQWKVDNALQSGNSQESVTEQDSKDSTYSLSSTLTLSKADYEKHKVYACEVTHQGLSSPVTKSFNRGEC
heavy 2: QIQLVQSGPELKKPGETVKISCKASGYTFTNYGMNWVRQASGEGLKWMGWINTYTGEPTYGEDFKGRFAFSLETSASTAYLQINNLKNEDTATYFCARFGNYVDYWGQGTTLTVSSASTKGPSVFPLAPSSKSTSGGTAALGCLVKDYFPEPVTVSWNSGALTSGVHTFPAVLQSSGLYSLSSVVTVPSSSLGTQTYICNVNHKPSNTKVDKRVEPKSCDKTHTCPPCPAPEFEGGPSVFLFPPKPKDTLMISRTPEVTCVVVAVSHEDPEVKFNWYVDGVEVHNAKTKPREEQYNSTYRVVSVLTVLHQDWLNGKEYKCKVSNKALPAPIEKTISKAKGQPREPQVYTLPPSREEMTKNQVSLTCLVKGFYPSDIAVEWESNGQPENNYKTTPPVLDSDGSFFLYSRLTVDKSRWQQGNVFSCSVMHEALHNHYTQKSLSLSPG
light 2: DIVMTQAAFSNPVTLGTSASISCRSSKNLLHSNGITYLYWYLQKPGQSPHLLIYQMSNLASGVPDRFSSSGSGTDFTLRISRVEAEDVGVYYCAQNLEIPRTFGGGTKLEIKRTVAAPSVFIFPPSDEQLKSGTASVVCLLNNFYPREAKVQWKVDNALQSGNSQESVTEQDSKDSTYSLSSTLTLSKADYEKHKVYACEVTHQGLSSPVTKSFNRGEC
- binding result [1]: binds
- binding result [2]: binds
- binding result [3]: binds

B2: IgG1-b12-FEAL (antibody, V domains shown)
VH: QVQLVQSGAEVKKPGASVKVSCQASGYRFSNFVIHWVRQAPGQRFEWMGWINPYNGNKEFSAKFQDRVTFTADTSANTAYMELRSLRSADTAVYYCARVGPYSWDDSPQDNYYMDVWGKGTTVIVSS
VL: EIVLTQSPGTLSLSPGERATFSCRSSHSIRSRRVAWYQHKPGQAPRLVIHGVSNRASGISDRFSGSGSGTDFTLTITRVEPEDFALYYCQVYGASSYTFGQGTKLERKR
notes: also called negative control antibody
- binding result [4]: no binding (tested: up to 50 µg/mL)
